Consider 2 molecules from patent US20240316154A1 (Eli Lilly, published 2024).

Assay [1] addresses T1, Rabbit serum albumin (rabbit, UniProt P49065 25-608).
T1 construct: bought; immobilised on a CM5 chip by amine coupling; also called Rabbit SA
Description: SPR, SA on chip, 25 C.
Description: (§1) Human SA is obtained from Sigma Aldrich (Cat. No. A8763). […] Mouse SA is obtained from Sigma Aldrich (Cat. No. A3139). Rat SA is obtained from Sigma Aldrich (Cat. No. A4538). Pig SA is obtained from Sigma Aldrich (Cat. No. A4414). […] Cow SA is obtained from Sigma Aldrich (Cat. No. A7030). […] Excess reactive groups on the surfaces (flow cell 1 and 2) are deactivated by injecting 70 μl of 1 M Ethanolamine hydrochloride-NaOH pH 8.5.
(§2) 180 μl of sample are individually injected sequentially across the immobilized SAs on the chip's surface and dissociated for 600 sec at 60 μl/min flow rate at 25° C.

Assay [2] concerns the target T2, Dog serum albumin (dog, UniProt P49822 25-608).
T2 construct: bought; immobilised on a CM5 chip by amine coupling; also called Dog SA
Description: SPR, SA on chip, 1:1 fit, 25 C. Background: SPR reads the build-up and loss of mass on a sensor chip optically.
Description: as §1, §2

The target of assay [3] is T3, Pig serum albumin (pig, UniProt P08835 25-607).
T3 construct: bought; immobilised on a CM5 chip by amine coupling; also called Pig SA
Description: SPR, SA on chip, 1:1 fit, 25 C.
Description: as §1, §2

Assay [4] deals with T4, Rat serum albumin (rat, UniProt P02770 25-608).
T4 construct: bought; immobilised on a CM5 chip by amine coupling; also called Rat SA
Nature of the assay: SPR, SA on chip, 1:1 fit, 25 C.
Description: as §1, §2

Assay [5] deals with T5, Cynomolgus monkey serum albumin (cynomolgus monkey, UniProt A2V9Z4 25-608).
T5 construct: bought; immobilised on a CM5 chip by amine coupling; also called Cyno SA
Nature of the assay: SPR, SA on chip, 1:1 fit, 25 C.
Description: as §1, §2

In assay [6] the target is T6, Mouse serum albumin (mouse, UniProt P07724 25-608).
T6 construct: bought; immobilised on a CM5 chip by amine coupling; also called Mouse SA
Nature of the assay: SPR, SA on chip, 1:1 fit, 25 C.
Description: as §1, §2

The target in assay [7] is T7, Human serum albumin (human, UniProt P02768 25-609).
T7 construct: bought; immobilised on a CM5 chip by amine coupling; also called Human SA
Nature of the assay: SPR, SA on chip, 1:1 fit, 25 C.
Description: as §1, §2

Assay [8] has as its target T8, Cow serum albumin (cow, UniProt P02769 25-607).
T8 construct: bought; immobilised on a CM5 chip by amine coupling; also called Cow SA
Description: SPR, SA on chip, 1:1 fit, 25 C.
Description: as §1, §2

For assay [9], the target named is IL-2 receptor-dimer pair of the PathHunter IL-2 BioAssay cells. Description: cell-based or functional assay.
Assay [10] has as its target T2, Dog serum albumin. Nature of the assay: SPR, SA on chip, 1:1 fit, 25 C. This is another data set of the same source.
Description: as §1, §2
Assay [11] has as its target T3, Pig serum albumin. Nature of the assay: SPR, SA on chip, 1:1 fit, 25 C. The source holds these as a separate data set.
Description: as §1, §2
For assay [12], the target named is T4, Rat serum albumin. Nature of the assay: SPR, SA on chip, 1:1 fit, 25 C. The source holds these as a separate data set.
Description: as §1, §2
For assay [13], the target named is T5, Cynomolgus monkey serum albumin. Description: SPR, SA on chip, 1:1 fit, 25 C. This is another data set of the same source.
Description: as §1, §2
The target of assay [14] is T6, Mouse serum albumin. Description: SPR, SA on chip, 1:1 fit, 25 C. This is another data set of the same source.
Description: as §1, §2
Assay [15] deals with T7, Human serum albumin. Description: SPR, SA on chip, 1:1 fit, 25 C. The source holds these as a separate data set.
Description: as §1, §2
The target of assay [16] is T8, Cow serum albumin. Nature of the assay: SPR, SA on chip, 1:1 fit, 25 C. This is another data set of the same source.
Description: as §1, §2
Assay [17] has as its target T1, Rabbit serum albumin. Description: SPR, SA on chip, 25 C. The source holds these as a separate data set.
Description: as §1, §2

As a reminder, the Kd is the free concentration of one partner at which half of the binding sites on the other are occupied at equilibrium, for simple one-to-one binding. One may read the koff as the first-order rate constant of dissociation. The term kon denotes the second-order rate constant of association.

Where two headings read alike, the source gives them in different places.

B1: VHH-based fusion of Example 7, VHH fusion 7 (MC6.1C22-(G4Q)5-IL2) (other)
chain: EVQLLESGGGLVQPGGSLRLSCAASGRYIDETAVAWFRQAPGKEREFVAGIGGGVDITYYADSVKGRFTISRDNSKNTLYLQMNSLRPEDTAVYYCAARPGRPLITSKVADLYPYWGQGTLVTVSSGGGGQGGGGQGGGGQGGGGQGGGGQAPQSSSTQQTQLQLEHLLLDLQMILNGINNYKNPKLTRMLTFKFYMPKKATELKHLQCLEEELKPLEEVLNLAQSKNFHLRPRDLISRINVIVLELKGSETTFMCEYADETATIVEFLNRWITFAQSIISTLT
notes: also called Compound 7; VHH-IL-2 fusion
For B1, the binding result with Rabbit serum albumin [1] is “no binding (tested: up to 1000 nM)”. In addition, the Kd in the assay with Dog serum albumin [2] turned out to be 1.8 nM; in the assay with Pig serum albumin [3] it was 13 nM; in the assay with Rat serum albumin [4], 3 nM; in assay [5] it was 0.39 nM; in the assay with Mouse serum albumin [6], 3.9 nM; with Human serum albumin [7], 0.23 nM. Besides, binding in the assay with Cow serum albumin [8] was characterised by a dissociation constant (Kd) of 78 nM. Also, the koff turned out to be 0.0016 s⁻¹ with Dog serum albumin [2]; 0.0058 s⁻¹ in the assay with Pig serum albumin [3]; 0.0029 s⁻¹ with Rat serum albumin [4]; 0.00056 s⁻¹ in [5]; 0.0038 s⁻¹ with Mouse serum albumin [6]; 0.00021 s⁻¹ in the assay with Human serum albumin [7]. The koff in the assay with Cow serum albumin [8] was found to be 0.052 s⁻¹. The kon with Dog serum albumin [2] is 920000 M⁻¹ s⁻¹; in the assay with Pig serum albumin [3], 450000 M⁻¹ s⁻¹; with Rat serum albumin [4], 970000 M⁻¹ s⁻¹; in assay [5], 1.4e+06 M⁻¹ s⁻¹; with Mouse serum albumin [6], 970000 M⁻¹ s⁻¹; in the assay with Human serum albumin [7], 910000 M⁻¹ s⁻¹. In the assay with Cow serum albumin [8], this molecule yielded a kon of 670000 M⁻¹ s⁻¹. Besides, in [9], the “EC50 (nM), PathHunter IL-2 BioAssay” value turned out to be 0.49 nM.

B2: VHH-based fusion of Example 8, VHH fusion 8 (GLP1-(G4Q)5-MC6.1C22.43) (other)
chain: HGEGTFTSDVSSYLEEQAAKEFIAWLVKGGGGGGGQGGGGQGGGGQGGGGQGGGGQEVQLLESGGGLVQPGGSLRLSCAASGRYIDETAVAWFRQAPGKEREFVAGIGGGVDITYYADSVKGRFTISRDNSKNTLYLQMNSLRPEDTAVYYCAARPGRPLITSKVADLYPYWGQGTLVTVSSPP
notes: also called Compound 8; GLP-1-VHH fusion
Regarding B2, the Kd with Dog serum albumin [10] is 5.4 nM; in the assay with Pig serum albumin [11] it was 27 nM; in the assay with Rat serum albumin [12] it was 11 nM; in assay [13], 0.96 nM; with Mouse serum albumin [14], 18 nM; with Human serum albumin [15], 0.15 nM. The Kd with Cow serum albumin [16] turned out to be 120 nM. Also, the koff amounted to 0.0038 s⁻¹ with Dog serum albumin [10]; 0.013 s⁻¹ with Pig serum albumin [11]; 0.0071 s⁻¹ with Rat serum albumin [12]; 0.00087 s⁻¹ in assay [13]; 0.01 s⁻¹ with Mouse serum albumin [14]; 0.00011 s⁻¹ with Human serum albumin [15]. In addition, the koff in the assay with Cow serum albumin [16] was determined as 0.093 s⁻¹. Further, the kon is 710000 M⁻¹ s⁻¹ with Dog serum albumin [10]; 490000 M⁻¹ s⁻¹ with Pig serum albumin [11]; 660000 M⁻¹ s⁻¹ with Rat serum albumin [12]; 910000 M⁻¹ s⁻¹ in assay [13]; 560000 M⁻¹ s⁻¹ with Mouse serum albumin [14]; 720000 M⁻¹ s⁻¹ with Human serum albumin [15]. In the assay with Cow serum albumin [16], this molecule gave a kon of 800000 M⁻¹ s⁻¹. Besides, in the assay with Rabbit serum albumin [17], the binding result is reported as “no binding (tested: up to 1000 nM)”.
